# Measurements taken from patent US20210214449A1 (ZOETIS SERVICES, published 2021).
# Where a chain is given by its changes, count along the chain named. Read-outs that look alike come from different tables or passages of the source.
# T1: canine NGF (canine, UniProt Q29074 110-229 (pig entry), limits assumed)
# T1 chain: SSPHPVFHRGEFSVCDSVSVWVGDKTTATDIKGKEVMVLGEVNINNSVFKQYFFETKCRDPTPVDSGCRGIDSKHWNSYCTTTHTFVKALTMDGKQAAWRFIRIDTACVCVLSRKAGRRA
# B1: can9L12VH_K98A (antibody, V domains shown)
# VH: EVQLVESGGDLVKPGGSLRLSCVASGFTFSSHGMHWVRQSPGKGLQWVAVINSGGSSTYYTDAVKGRFTISRDNAKNTVYLQMNSLRAEDTAMYYCAAESVGGWEQLVGPHFDYWGQGTLVIVSS
# VL: QSVLTQPTSVSGSLGQRVTISCSGSTNNIGILGASWYQLFPGKAPKLLVYGNGNRPSGVPDRFSGADSGDSVTLTITGLQAEDEADYYCQSFDTTLGAHVFGGGTHLTVL
# B2: can9L12VH_V101A (antibody, V domains shown)
# VH: B1 VH with A98K, V101A
# VL: B1 VL
# B3: can9L12VH_W104A (antibody, V domains shown)
# VH: B1 VH with A98K, W104A
# VL: B1 VL
# B4: can9L12VH_F112A (antibody, V domains shown)
# VH: B1 VH with A98K, F112A
# VL: B1 VL
# B5: ZTS-841 (antibody, V domains shown)
# VH: B1 VH with A98K
# VL: B1 VL
# B6: ZTS-842 (antibody, V domains shown)
# VH: EVQLVESGGDLVKPGGSLRLSCVASGFTFSTYGINWVRQAPGKGLQWVAYISSGGSSTYYADPVKGRFTISRDDAKNMLYLQMNSLRAEDTAIYYCAGSRYTYAYGGGYEFHFWGQGTLVTVSS
# VL: QAVLNQPASVSGALGQKVTISCSGSTMDIDIFGVSWYQQLPGKAPKLLVDSDGDRPSGIPDRFSGSRSGNSGTLTITGLQAEDEADYHCQSGDSTLGALAIFGGGTHVTVL
# B7: fel48L2 1.1 (antibody, V domains shown)
# VH: B6 VH with E1D, S21T, D74N, S85N, R87K, A88T, I93T
# VL: QAVLNQPSSVSGALGQRVTISCSGSTMDIDIFGVSWYQQIPGMAPKTIIDSDGDRPSGVPDRFSGSKSGSTGTLTITGLQAEDEADYYCQSGDSTLGALAIFGGGTHVTVLG
# Columns and labels:
# rat NGF (rat) = rat NGF (rat) (UniProt P25427); assay: SPR (Biacore T200), 100 nM mAb on NGF chip, vs parent mAb
# human NGF (human) = human NGF (human) (UniProt P01138); assay: as above
# canine NGF [1] = biological target: T1, canine NGF; assay: cell-based or functional assay
# canine NGF [2] = biological target: T1, canine NGF; assay: cell-based or functional assay
# canine NGF [3] = biological target: T1, canine NGF; assay: cell-based or functional assay
# Sequence of human NGF (human) (P01138 other isoform, or with tags, fused parts or gaps limits assumed): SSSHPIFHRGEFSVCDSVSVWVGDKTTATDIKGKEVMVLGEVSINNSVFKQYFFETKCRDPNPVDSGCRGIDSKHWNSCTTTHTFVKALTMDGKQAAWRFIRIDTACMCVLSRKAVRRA
# Sequence of rat NGF (rat) (P25427 122-241 limits assumed): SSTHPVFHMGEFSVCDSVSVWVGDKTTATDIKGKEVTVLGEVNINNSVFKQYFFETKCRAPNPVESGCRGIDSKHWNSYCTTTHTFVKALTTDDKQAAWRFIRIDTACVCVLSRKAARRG
binder,measurement,setting,value
B1,Percent Similarity Score (%),rat NGF (rat),7.92%
same,Percent Similarity Score (%),human NGF (human),8.58%
B2,Percent Similarity Score (%),human NGF (human),5.29%
B3,Percent Similarity Score (%),rat NGF (rat),8.2%
B4,Percent Similarity Score (%),human NGF (human),8%
B5,"IC50 (read off the curve), canine NGF-induced pERK-1/2 in caTrkA-CHO cells",canine NGF [1],~0.2 µg/ml
same,"IC50 (read off the curve), canine NGF-induced TF-1 cell proliferation",canine NGF [2],~8 ng/mL
B6,"IC50 (read off the curve), canine NGF-induced pERK-1/2 in caTrkA-CHO cells",canine NGF [1],~0.1 µg/ml
same,"IC50 (read off the curve), canine NGF-induced TF-1 cell proliferation",canine NGF [2],~5 ng/mL
B7,"IC50 (read off the curve), canine NGF-induced TF-1 cell proliferation",canine NGF [3],~7 ng/mL
